Source: patent US20070249530A1 (Genentech, published 2007)

Assays:
[1] = biological target: T1, Human BAFF (residues 82-285) (human, UniProt Q9Y275 82-285); experiment: competitive displacement ELISA on immobilized BAFF; unbiotinylated BCMA-Fc varied, tracer biotinylated miniBR3
T1 construct: also called BAFF82-285
Protocol: The plate washed with PBS and blocked for 1 hr with 200 μl of 0.2% BSA in PBS at room temperature. […] The plate washed with PBS/Tween-20 and incubated with 100 μl/well of 0.1 U/ml Streptavidin-POD (Boehringer Mannheim) for 15 minutes at room temperature. After washing the plate with PBS/0.05% Tween-20 followed by a final wash in PBS, the plate was incubated for 5 min with 100 μl/well PBS substrate solution containing 0.8 mg/ml OPD (Sigma) and 0.01% H₂O₂.

[2] = biological target: T1, Human BAFF (residues 82-285); experiment: SPR (BIAcore 3000), BAFF immobilized, 1:1 model
Protocol: CM5 chips from BIAcore were docked according to manufacturer instructions. Then, BIAcore system was primed with 0.2 μm filtered buffer containing 10 mM Hepes pH 7.2, 150mM NaCl, 0.005% Tween20. After buffer priming, the flow cells were normalized with 70% glycerol. Each flow cell surface was activated individually in preparation for linkage of the ligand to the chip with a 1:1 mixture of EDC(N-ethyl-N′-(3-dimethyl aminopropyl)-carbodiimide hydrochloride) and NHS (N-hydroxysuccinimide). […] Generally, the ligand to be immobilized (30 μg/ml in 10 mM NaOAc, pH 5 buffer) was injected into the system at 40 μl/min. Once approximately 400 RU was generated, the flow cell was blocked with ethanolamine. […] The system was then primed again.
The ligand-receptor complex was allowed to dissociate by washing the flow cell at 30 μl/min for 600 seconds. Alternatively, if several binding measurements over the same flow cell were to be performed, the ligand-receptor complex was allowed to dissociate by washing the flow cell at 30 μl/min for 900 seconds. Sensorgrams were recorded for each binding assay. A 1:1 Langmuir binding equation was used to simultaneously fit the association and dissociation rates of the ligand-analyte interactions. kₐ, kd, KD were calculated using curve fit analysis software provided with the BiaCore instrument

[3] = biological target: T1, Human BAFF (residues 82-285); experiment: competitive displacement ELISA; immobilized BAFF, tracer biotinylated mini-BR3; bivalent Fc construct (avidity); competition ELISA
[4] = biological target: T1, Human BAFF (residues 82-285); experiment: SPR (BIAcore 3000), BAFF immobilized

T1 sequence (Q9Y275 82-285): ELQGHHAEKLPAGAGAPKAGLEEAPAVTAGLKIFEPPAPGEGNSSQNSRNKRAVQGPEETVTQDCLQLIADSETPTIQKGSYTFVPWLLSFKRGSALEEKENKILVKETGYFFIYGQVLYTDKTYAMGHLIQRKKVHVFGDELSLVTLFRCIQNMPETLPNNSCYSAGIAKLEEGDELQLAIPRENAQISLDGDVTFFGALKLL

Binder | IC50 (read off the curve) [1] | Kd [2] | koff [2] | kon [2] | IC50 [3] | binding result [4]
AGQCSQNEYFDSLLHACIPCQLRCSSNTPPLTCQRYCNASVTNSVKG (Fc fusion, not shown: a dimerising Fc or GST, also called BCMA(wt)-Fc; BCMA-Fc wt) [BCMA-Fc] | ~9 nM | 4.9 nM | 0.0034 s⁻¹ | 680000 M⁻¹ s⁻¹ | 13 nM | –
MAGQCSQNEYFDSLLHACIPCQLRCSSNTPPLTCQRYCNASVTNSVKGTN (receptor, not shown: small tags and cut ends, also called BCMA(baculovirus); baculovirus BCMA) [BCMA ECD purified from baculovirus expression] | – | – | – | – | – | no binding (tested: analyte 6.25 nM to 200 nM)
